Patent US20260116991A1 (HAINAN SIMCERE ZAIMING PHARMACEUTICAL, published 2026)

T1: polypeptide GC3pep (human)
T1 construct: also called membrane proximal polypeptide GC3pep
T1 peptide: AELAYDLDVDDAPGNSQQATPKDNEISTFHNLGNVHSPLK

T2: polypeptide GC3pep of human GPC3 (Ala524-Lys563) (human)
T2 construct: Residues Ala524-Lys563 of human GPC3 (NCBI NM_004484.3); coated on the ELISA plate; also called membrane proximal polypeptide GC3pep
T2 peptide: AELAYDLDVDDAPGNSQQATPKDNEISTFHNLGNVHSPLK


Assays:
polypeptide GC3pep [1] = target: T1, polypeptide GC3pep; assay: ELISA, GC3pep coated, antibody 100 nM;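 also: detection with an HRP-conjugated secondary antibody and TMB substrate, color reaction stopped with HCl before absorbance reading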
polypeptide GC3pep [2] = target: T1, polypeptide GC3pep; assay: ELISA, GC3pep coated, antibody 0.01 nM;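 also: bound antibody detected with an HRP-conjugated secondary antibody and TMB substrate, color reaction stopped with HCl before reading absorbance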
polypeptide GC3pep [3] = target: T1, polypeptide GC3pep; assay: ELISA, GC3pep coated, antibody 10 nM;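 also: antibody bound to the coated peptide for 2 h at 37 °C, detected through an HRP-conjugated secondary antibody with TMB colour development stopped by acid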
polypeptide GC3pep [4] = target: T1, polypeptide GC3pep; assay: ELISA, GC3pep coated, antibody 0.001 nM
polypeptide GC3pep [5] = target: T1, polypeptide GC3pep; assay: ELISA, GC3pep coated, antibody 0.0001 nM
polypeptide GC3pep [6] = target: T1, polypeptide GC3pep; assay: ELISA, GC3pep coated, antibody 0.1 nM;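 also: antibody allowed to bind the coated plate 2 h at 37 °C, then detected via HRP-conjugated secondary antibody and TMB development for 10 min, stopped with HCl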
polypeptide GC3pep [7] = target: T1, polypeptide GC3pep; assay: ELISA, GC3pep coated, antibody 1 nM;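 also: bound antibody detected with an HRP-conjugated secondary antibody and TMB substrate, reaction stopped with HCl, after 2 h binding at 37 °C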
murine GPC3-His protein = target: T3, murine GPC3-His protein (murine, UniProt Q8CFZ4 25-558, limits assumed); assay: SPR, antibody captured on Protein A chip, murine GPC3-His injected
T3 construct: bought protein; also called murine GPC3 protein
T3 sequence (Q8CFZ4 25-558 limits assumed): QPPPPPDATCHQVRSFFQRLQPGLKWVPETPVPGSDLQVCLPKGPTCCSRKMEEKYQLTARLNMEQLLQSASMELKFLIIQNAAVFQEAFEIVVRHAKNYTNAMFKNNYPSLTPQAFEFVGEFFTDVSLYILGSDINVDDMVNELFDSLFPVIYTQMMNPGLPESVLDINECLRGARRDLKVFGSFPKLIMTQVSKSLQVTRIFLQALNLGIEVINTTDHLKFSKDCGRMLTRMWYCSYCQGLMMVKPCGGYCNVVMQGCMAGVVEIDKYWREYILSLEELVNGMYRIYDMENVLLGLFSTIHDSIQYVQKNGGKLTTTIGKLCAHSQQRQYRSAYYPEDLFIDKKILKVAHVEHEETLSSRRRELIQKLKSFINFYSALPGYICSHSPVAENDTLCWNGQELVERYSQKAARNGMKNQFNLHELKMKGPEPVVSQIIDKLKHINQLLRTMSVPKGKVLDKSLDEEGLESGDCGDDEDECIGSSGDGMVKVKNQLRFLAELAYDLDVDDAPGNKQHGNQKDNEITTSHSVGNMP

[8] = target: T4, murine GPC3-His protein (Sino Biological, Cat. No. 50989-M08B) (murine, UniProt Q8CFZ4 25-558); assay: ELISA, coated antigen
T4 construct: Bought protein; also called murine GPC3 protein; mouse GPC3-his protein; not shown: His tag
T4 sequence (Q8CFZ4 25-558 limits assumed): as above

[9] = target: T2, polypeptide GC3pep of human GPC3 …; assay: ELISA, coated peptide
monkey GPC3-His protein [10] = target: T5, monkey GPC3-His protein (monkey); assay: ELISA, monkey GPC3-His coated; antibody 13.33 nM
T5 construct: Bought protein; also called monkey GPC3 protein

monkey GPC3-His protein [11] = target: T5, monkey GPC3-His protein; assay: ELISA, monkey GPC3-His coated; antibody 66.66 nM
monkey GPC3-His protein [12] = target: T5, monkey GPC3-His protein; assay: ELISA, monkey GPC3-His coated; antibody 0.53 nM
monkey GPC3-His protein [13] = target: T5, monkey GPC3-His protein; assay: ELISA, monkey GPC3-His coated; antibody 2.67 nM
monkey GPC3-His protein [14] = target: T5, monkey GPC3-His protein; assay: ELISA, monkey GPC3-His coated; antibody 0.11 nM
monkey GPC3-His protein [15] = target: T5, monkey GPC3-His protein; assay: ELISA, monkey GPC3-His coated; antibody 0.02 nM
monkey GPC3-His protein [16] = target: T5, monkey GPC3-His protein; assay: ELISA, monkey GPC3-His coated; antibody 0.004 nM
GPC3 on HepG2 cells = target: T6, GPC3 on HepG2 cells (human, UniProt P51654 25-554); assay: FACS on HepG2 cells
T6 construct: whole, on cells; also called glypican-3

monkey GPC3-His protein [17] = target: T5, monkey GPC3-His protein; assay: ELISA, monkey GPC3-His coated; antibody 0.0008 nM

OD450 nm (polypeptide GC3pep [1]) [OD450 nm]	OD450 nm (polypeptide GC3pep [2]) [OD450 nm]	OD450 nm (polypeptide GC3pep [3]) [OD450 nm]	OD450 nm (polypeptide GC3pep [4]) [OD450 nm]	OD450 nm (polypeptide GC3pep [5]) [OD450 nm]	OD450 nm (polypeptide GC3pep [6]) [OD450 nm]	OD450 nm (polypeptide GC3pep [7]) [OD450 nm]	Kd (murine GPC3-His protein) [nM]	koff (murine GPC3-His protein) [s⁻¹]	kon (murine GPC3-His protein) [M⁻¹ s⁻¹]	binding result [8]	binding result [9]	Binder	also measured
0.05	0.05	0.05	0.05	0.05	0.05	0.05	0.844	0.000147	174000	–	–	F1.2.14 (antibody, human IgG1, kappa, V domains shown, human-murine chimeric antibody) VH: RVQLQQSGAELVKPGASVRMSCKASGYTFTAYSIEWMKQNLGKSLEWIGNFRPYNDDTKYNENFKGRATLTVEKSSATVYLELSRLTSDDSAVYYCARSGPTDYFDYWGQGTTLIVSS VL: DIQMTQSPASLSASVGETVTITCRASDNIYSYLAWYQQKQGQSPQLLVYNAKTLAEGVPSRFSGSGSVTQFSLKIISLQPEDFGTYYCQHHFGTPRTFGGGTKLEIKR	–
0.11	0.04	0.05	0.04	0.04	0.04	0.04	6.87	0.00173	251000	–	–	F1.145.22 (antibody, human IgG1, kappa, V domains shown, human-murine chimeric antibody) VH: QVQLQQSGTDLARPGASVKLSCKASGYTFTSFGISWVKQRTGQGLEWIGEIYPRSGSPYYNEKFTGKATLTADKSSSTAYMELRSLTSEDSAVYFCAKDFGSSYVFDYWGQGTALTVSS VL: DIQMTQSPASLSASVGETVTITCRASENIYSYLTWYQQKQGKSPQLLVYNAKTLAEGVPSRFSGSGSGTQFSLKINSLQPEDFGTYYCQHHYGTPPTFGTGTKLDLKR	–
0.05	0.05	0.05	0.05	0.05	0.05	0.05	0.0771	4.84e-05	628000	–	–	F1.21.8 (antibody, human IgG1, kappa, V domains shown, human-murine chimeric antibody) VH: EVQLQQSGPELVKPGASVKISCKTSGFLFTGHYMHWVKSSHGNILDWIGYIYPYNAISFYNQKFKGKATLTVDKSSNTAYMELRSLTSEDSAVYYCARGDYGNYVTAYWGQGTLVTVSA VL: DVLMTQTPLSLPVSLGDQASISCRSSQSIVHSSGNTYLEWYLQKPGQSPKLLIYKVSNRFSGVPDRFSGSGSGTDFTLKISRVEAEDLGVYYCFQGSHLPWTFGGGTKLDIKR	–
–	–	–	–	–	–	–	–	–	–	no binding (tested: 100 nM)	no binding (tested: 100 nM)	F4.21.16 human-murine chimeric antibody (antibody, human IgG1, kappa, V domains shown, Chimeric) VH: DVQLQESGPGLVKPSQSLSLTCSVTGYSITSGYYWNWIRQFPGNKLEWMGYISYDVTVNYNPSLKNRISITRDTSKNQFFLKLNSVTTEDTATYYCATITSVASMDHWGQGTSVTVSS VL: DILMTQTPLSLPVSLGDQASISCRSSQNIVHRNGNTYLEWYLQKPGQSPKLLLYKVSNRFSGVPDRFSGSGSGTDFTLKISRVEAEDLGIYYCFQGSHFPFTFGSGTKLEIKR	–
0.15	0.05	0.06	0.06	0.06	0.06	0.06	3.47	0.00045	129000	–	–	F1.111.11 (antibody, human IgG1, kappa, V domains shown, human-murine chimeric antibody) VH: EVQLQQSGPELVKPGASVKISCKASGYTFTDYYMNWVKQSHGKSLEWIGDIYPNNGDTTYNQRFKGKATLTVDKSSSTAYMELRSLASEDSAVYYCACPYNNPFGYWGQGTLVTVSA VL: DVVMTQTPLSLPVSLGDQASISCRSSQSLVHSNGNTYLHWYLQKPGQSPKLLIYKVSNRFSGVPDRFSGSGSGTDFTLKISRVEAEDLGVYFCSQSTHVPWTFGGGTKLEIKR	–
–	–	–	–	–	–	–	–	–	–	no binding (tested: 100 nM)	no binding (tested: 100 nM)	F1.9.19 human-murine chimeric antibody (antibody, human IgG1, kappa, V domains shown, Chimeric) VH: DVQLQESGPGLVKPSQSLSLTCSVTGYSITSGYYWNWIRQFPGNRLEWMAYISYDGINNYNPSLKNRISIARDTSTNQFFLKLNSVTSEDTATYYCATTTEVALFDHWGQGTTLTVSS VL: DVLLTQTPLSLPVSLGDQASISCRSSQNIVHGNGNTYLEWFLQKPGQSPKLLIYKVSNRFSGVPDRFSGSGSGTDFTLKISRVEAEDLGLYYCFQASHVPWTFGGGTKLEIKR	–
–	–	–	–	–	–	–	–	–	–	–	no binding (tested: 100 nM)	F4.18.4 human-murine chimeric antibody (antibody, human IgG1, kappa, V domains shown, Chimeric) VH: QVQLHQSGAEMAKPGASVNLSCKTSGFTFTDYGISWVKQRTRQGLEWIGDIYPRHINIYYNEKFKDKATLTADRSSSTAYMELRSMTSEDSAVYFCARRGTTGRGALDYWGQGTSLTVSS VL: DILLTQSPAILSVSPGERVSFSCRASQSIGTSIHWYQQRTNGSPRLLIKYAFESISGIPSRFGGSGSRTDFTLTINSVESEDIADYYCQQTYNWPYTFGGGTKLEIKR	–
0.12	0.16	0.04	0.19	0.05	0.08	0.28	1.46	0.00072	492000	–	–	F4.26.1 (antibody, human IgG1, kappa, V domains shown, human-murine chimeric antibody) VH: QVQLKQSGPGLVQPSQSLSITCTVSGFSLTSYGVHWVRQSPGKGLEWLGVIWSSGNTDYNAVLISRLSIKKDDSKSQVFFKMNSPQVDDSAIYYCGRNGGWLLRGFMDFWGQGTSVTVSS VL: DVVMTQTPLSLPVSLGDQASISCRSSQSLLHSNGNTYLHWYLQRSGQSPNLLIYKVSNRFSGVPDRFSGGGSGTDFTLKISRVEAEDLGIYFCSQSTHVPWTFGGGTKLEIKR	–
–	–	–	–	–	–	–	–	–	–	–	no binding (tested: 100 nM)	F4.26.1 human-murine chimeric antibody (antibody, human IgG1, kappa, V domains shown, Chimeric) VH: QVQLKQSGPGLVQPSQSLSITCTVSGFSLTSYGVHWVRQSPGKGLEWLGVIWSSGNTDYNAVLISRLSIKKDDSKSQVFFKMNSPQVDDSAIYYCGRNGGWLLRGFMDFWGQGTSVTVSS VL: DVVMTQTPLSLPVSLGDQASISCRSSQSLLHSNGNTYLHWYLQRSGQSPNLLIYKVSNRFSGVPDRFSGGGSGTDFTLKISRVEAEDLGIYFCSQSTHVPWTFGGGTKLEIKR	–
–	–	–	–	–	–	–	–	–	–	no binding (tested: 100 nM)	no binding (tested: 100 nM)	F1.153.1 human-murine chimeric antibody (antibody, human IgG1, kappa, V domains shown, Chimeric) VH: QIQLVQSGPELKKPGETVKISCKASGYTFTTAGMQWVQKMPGKGFKWIGWINTHSGEPQYAEDFKGRFAFSLETSASTAYLQISNLKNEDTATYFCARSFYYHGSSFFYFDYWGQGTTLTVSS VL: DIVMTQSQKFMSTTVGDRVSITCKASQNVGTAVAWYQQKPGQSPKLLIYSASNRYTGVPDRFTGSGSGADFTLTISNMQSEDLADYFCQQYSRYPLTFGAGTKLELKR	–
–	–	–	–	–	–	–	–	–	–	–	–	hAb007LH2L1b (antibody, human IgG1, V domains shown, Humanized F3.81.19, H2+L1b) VH: EVQLVQSGAEVKKPGSSVKVSCKASGYTFTDYEMHWVRQAPGQGLEWMGTIDPETGNTAYNQKFKGRVTITADKSTSTAYMELSSLRSEDTAVYYCTRPYSLTYWGQGTLVTVSS VL: DIVMTQTPLSLPVTPGEPASISCRSSQSFVHSNRDTYLQWYLQKPGQSPQLLIYKVSNRFSGVPDRFSGSGSGTDFTLKISRVEAEDVGVYYCFQGSHVPYTFGQGTKLEIK	OD450 nm (monkey GPC3-His protein [10]): 2.56; OD450 nm (monkey GPC3-His protein [11]): 2.61; OD450 nm (monkey GPC3-His protein [12]): 2.09; OD450 nm (monkey GPC3-His protein [13]): 2.35; OD450 nm (monkey GPC3-His protein [14]): 0.967; OD450 nm (monkey GPC3-His protein [15]): 0.32; OD450 nm (monkey GPC3-His protein [16]): 0.127; EC50 (GPC3 on HepG2 cells): 9.53 nM; Max MFI (GPC3 on HepG2 cells): 5320; OD450 nm (monkey GPC3-His protein [17]): 0.08
–	–	–	–	–	–	–	–	–	–	no binding (tested: 100 nM)	no binding (tested: 100 nM)	F1.118.4 human-murine chimeric antibody (antibody, human IgG1, kappa, V domains shown, Chimeric) VH: QVQLQQSGAELAKPGASVKLSCKASGYSFTSYWIHWVKQRPGQGLEWIGYINPSSGYTKYNQKFKDKATLTADKSSSTAYMQLSSLTYEDSAVYYCARFGSSSFYFDYWGQGTTLTVSS VL: DIVLTQSPASLAVSLGQRATISCRASQSVSSSSYSYMHWYQQKPGQPPKLLIKYASNLDSGVPARFSGSGSGTDFTLNIHPVEEEDTATYYCQHSWEIPAFGGGTKLEIKR	–
–	–	–	–	–	–	–	–	–	–	no binding (tested: 100 nM)	no binding (tested: 100 nM)	F1.41.17 human-murine chimeric antibody (antibody, human IgG1, kappa, V domains shown, Chimeric) VH: EVQLVESGGDSVKPGGSLKLSCAASGFTFSSYGMSWVRQTPDKRLEWVATINSGGSYTYYQDSVKGRFTISRDNAKNTLYLQMSSLKSEDTAIYYCVRHHYGSSYDYFDYWGQGTTLTVSS VL: DIVMTQAAPSVPVMPGESVSISCRSSKSLLHSNGNTHLYWFLQRPGQSPQLLIYRMSNLASGVPDRFSGSGSGTAFTLRISRVEAEDVGVYYCMQHLEYPLTFGAGTKLELKR	–
